From patent US7387779B2, “Anti-angiogenic proteins and fragments and methods of use thereof” (Beth Israel Deaconess Medical Center, priority 1998, dated 2008)

Columns and labels:
[1] = system: Caspase-3 in C-PAE cells; test: Caspase-3 assay; type: cell-based, bovine; conditions: for effect on Caspase-3 activity: 5 μg/ml
Procedure: Tumstatin also altered cell morphology of C-PAE cells as monitored by phase contrast microscopy. After treating cells with 20 μg/ml of Tumstatin in the presence of 10% FCS for 24 hours on fibronectin-coated plates, the typical morphological features of apoptotic cells, membrane blebbing, cytoplasmic shrinkage, and chromatin condensation could be observed. […] Caspase-3 assay: Caspase-3 (CPP32) is an intracellular protease activated at the early stage of apoptosis, and initiates cellular breakdown by degrading structural and DNA repair proteins (Casciola-Rosen, L. et al., 1996, J. Exp. Med. 183:1957-64; Salvesen, G. S. et al., 1997, Cell 91:443-46). The protease activity of Caspase-3 was measured spectrophotometrically by detection of the chromophore (p-nitroanilide) cleaved from the labeled substrate (DEVD-pNA). C-PAE cells or PC-3 cells (0.5×10^6 per well) were plated onto a 6-well plate precoated with fibronectin (10 μg/ml) in DMEM supplemented with 10% FCS, and incubated overnight. The next day, the medium was replaced with DMEM containing 2% FCS and then incubated overnight at 37° C. Then cells were then stimulated with bFGF (3 ng/ml) in DMEM supplemented with 2% FCS, and also containing either TNF-α (80 ng/ml, positive control) or Tumstatin (10 μg/ml), and incubated for 24 hours. Controls received PBS buffer. After 24 hours, the supernatant cells were collected, and attached cells were trypsinized and combined with the supernatant cells. Cells were counted and resuspended in cell lysis buffer (Clontech) at a concentration of 4×10^7 cells/ml. The rest of the protocol followed the manufacturer's instructions (Clontech). A specific inhibitor of Caspase-3, DEVD-fmk (Asp-Glu-Val-Asp-fluoromethyl ketone) was used to confirm the specificity of the assay. The absorbance was measured in a microplate reader (Bio-Rad, Hercules, Calif., USA) at 405 nm. The assay was repeated three times for each cell type.
Apoptosis was also evaluated by measuring Caspase-3 activity as described in Example 27, above. The results are shown in FIG. 35, which is a histogram showing Caspase-3 activity as a measure of absorbance at OD405 (y-axis) of C-PAE cells treated (x-axis) with 5 μg/ml Tum-1, Tum-2, Tum-3 or Tum-4, or 80 ng/ml TNF-α or PBS buffer (control).
Caspase-3 activity was also assayed as described above. DEVD-fmk, a specific caspase-3 inhibitor, was used as an internal control to show specificity of Tumstatin-44-131. TNF-α (80 ng/ml) was used as a positive control. The experiments were repeated three times.
The protease activity of Caspase-3 in cells treated with T3 peptide was measured spectrophotometrically by detection of the chromophore (p-nitroanilide) cleaved from the labeled substrate (DEVD-pNA). […] In PC-3 nonendothelial cells, there was no difference in Caspase-3 activity between control treatments and T3 peptide-treated cells.

[2] = system: WM-164 cells; test: Melanoma cell proliferation, methylene blue staining; type: cell-based, human; conditions: for Relative Cell No. (%) WM-164: 3% FCS, 50 μg/ml recombinant protein
Procedure: In the methylene-blue staining method, 7000 cells were plated into each well of a 96-well plate, and treated as described above. Cells were then counted using the method of Oliver et al. (1989, J. Cell. Sci. 92:513-8). After 48 hours of treatment, all wells were washed with 100 μl of PBS, and the cells fixed with 10% formalin in neutral-buffered saline (Sigma Chemical Co., St. Louis, Mo., USA). The cells were then stained with 1% methylene blue (Sigma) in 0.01M borate buffer, pH 8.5. Wells were washed with 0.01M borate buffer, and the methylene blue extracted from the cells with 0.1N HCl/ethanol, and the absorbance measured in a microplate reader (Bio-Rad, Hercules, Calif., USA) at 655 nm. Polymyxin B (Sigma) at a final concentration of 5 μg/ml was used to inactivate endotoxin (Liu, S. et al., 1997, Clin. Biochem. 30:455-63).
Endothelial cell proliferation was performed by ^3H-thymidine incorporation or methylene blue staining as described above in Example 25. C-PAE cells (passages 2-4) were grown to confluence and kept contact inhibited for 48 hours. 786-O, PC-3 and WM-164 cells were used as non-endothelial controls, and were cultured as described in Example 25, above. HPE (human primary prostate epithelial cells) were cultured in keratinocyte-SFM supplemented with bovine pituitary and recombinant human EGF (Life Technologies/Gibco BRL, Gaithersburg, Md., USA). The melanoma cell line WM-164 was obtained from Dr. Meenhard Herlyn at the Wistar Institute (Philadelphia, Pa., USA), and was cultivated in 78% MCDB-153 medium, 10% L-15 medium, 10% tryptose phosphate broth, 2% FBS, and 50 units/ml insulin, as described by Herlyn et al. (1990, Adv. Cancer Res. 54:213-34).
Proliferation of endothelial cells (C-PAE cells) and WM-164 melanoma cells was assayed by methylene blue staining, as described above in Examples 25 and 34. The results are shown in FIGS. 33A and 33B, which are a pair of graphs showing the effect of increasing concentration (x-axis) of Tumstatin, Tum-1, Tum-2, Tum-3 and Tum-4 on the relative number (y-axis) of C-PAE cells (FIG. 33A) and WM-164 cells (FIG. 33B). […] Tum-4, however, did have anti-proliferative activity in this cell line. […] Only Tum-4 inhibited WM-164 melanoma cells.

| Molecule | fold increase in Caspase-3 activity ([1]; 50 μg/ml T3 peptide, TNF-α 80 ng/ml) [fold] | fold increase in Caspase-3 activity ([1]; T3 peptide at 10 mg/ml (so in the source)) [fold] | effect on Caspase-3 activity [1] | effect on proliferation of WM-164 cells [2] | Relative Cell No. (%) WM-164 [2] [%] | fold increase in Caspase-3 activity ([1]; 10 μg/ml E. Coli-expressed Tumstatin-44-131, TNF-α 80 ng/ml) [fold] | inhibition of WM-164 melanoma cells ([2]; 50 μg/ml) [%] |
| --- | --- | --- | --- | --- | --- | --- | --- |
| LQRFTTMPFLFCNVNDVCNF [T3] | 3.6 | 1.6 |  |  |  |  |  |
| Tum-1: residues 54 to 244 of Tumstatin, lacking the N-terminal 53 amino acids (SEQ ID NO:22) (protein, Tum-1 (Tumstatin N-53) (amino acids 54-244 of SEQ ID NO10)) QRAHGQDLGTLGSCLQRFTTMPFLFCNVNDVCNFASRNDYSYWLSTPALMPMNMAPITGRALEPYISRCTVCEGPAIAIAVHSQTTDIPPCPHGWISLWKGFSFIMFTSAGSEGTGQALASPGSCLEEFRASPFLECHGRGTCNYYSNSYSFWLASLNPERMFRKPIPSTVKAGELEKIISRCQVCMKKRH |  |  | increased | not affected | 100.7 ± 2.7 |  |  |
| Tumstatin: NC1 domain of the α3 chain of type IV collagen, residues 1-244 (SEQ ID NO:10) (protein, listed as Homo sapiens) GLKGKRGDSGSPATWTTRGFVFTRHSQTTAIPSCPEGTVPLYSGFSFLFVQGNQRAHGQDLGTLGSCLQRFTTMPFLFCNVNDVCNFASRNDYSYWLSTPALMPMNMAPITGRALEPYISRCTVCEGPAIAIAVHSQTTDIPPCPHGWISLWKGFSFIMFTSAGSEGTGQALASPGSCLEEFRASPFLECHGRGTCNYYSNSYSFWLASLNPERMFRKPIPSTVKAGELEKIISRCQVCMKKRH |  |  |  | no inhibitory effects | 100.0 ± 2.9 |  |  |
| Tumstatin-44-131: residues 44 to 131 of full-length Tumstatin (SEQ ID NO:33) (protein, Tumstatin-45-132 (amino acids 45-132 of SEQ ID NO10)) FSFLFVQGNQRAHGQDLGTLGSCLQRFTTMPFLFCNVNDVCNFASRNDYSYWLSTPALMPMNMAPITGRALEPYISRCTVCEGPAIAI |  |  |  | not observed |  | 4.5 |  |
| Tum-2: residues 1 to 132 of Tumstatin (SEQ ID NO:23) (protein, Tum-2 (amino acids 1-132 of SEQ ID NO10)) GLKGKRGDSGSPATWTTRGFVFTRHSQTTAIPSCPEGTVPLYSGFSFLFVQGNQRAHGQDLGTLGSCLQRFTTMPFLFCNVNDVCNFASRNDYSYWLSTPALMPMNMAPITGRALEPYISRCTVCEGPAIAI |  |  | increased | not affected | 96.2 ± 3.7 |  |  |
| Tum-4: residues 181 to 244 of Tumstatin (SEQ ID NO:25) (protein, Tum-4 (amino acids 181-244 of SEQ ID NO10)) EFRASPFLECHGRGTCNYYSNSYSFWLASLNPERMFRKPIPSTVKAGELEKIISRCQVCMKKRH |  |  | did not |  | 52.4 ± 3.4 |  | 46.1 |
